From PMC4788435 (2016)

B1: human NEK8-GFP wild type [human] / Flag-ANKS6 [not stated] (parent complex)
chain 1: MEKYERIRVVGRGAFGIVHLCLRKADQKLVIIKQIPVEQMTKEERQAAQNECQVLKLLNHPNVIEYYENFLEDKALMIAMEYAPGGTLAEFIQKRCNSLLEEETILHFFVQILLALHHVHTHLILHRDLKTQNILLDKHRMVVKIGDFGISKILSSKSKAYTVVGTPCYISPELCEGKPYNQKSDIWALGCVLYELASLKRAFEAANLPALVLKIMSGTFAPISDRYSPELRQLVLSLLSLEPAQRPPLSHIMAQPLCIRALLNLHTDVGSVRMRRAEKSVAPSNTGSRTTSVRCRGIPRGPVRPAIPPPLSSVYAWGGGLGTPLRLPMLNTEVVQVAAGRTQKAGVTRSGRLILWEAPPLGAGGGSLLPGAVEQPQPQFISRFLEGQSGVTIKHVACGDFFTACLTDRGIIMTFGSGSNGCLGHGSLTDISQPTIVEALLGYEMVQVACGASHVLALSTERELFAWGRGDSGRLGLGTRESHSCPQQVPMPPGQEAQRVVCGIDSSMILTVPGQALACGSNRFNKLGLDHLSLGEEPVPHQQVEEALSFTLLGSAPLDQEPLLSIDLGTAHSAAVTASGDCYTFGSNQHGQLGTNTRRGSRAPCKVQGLEGIKMAMVACGDAFTVAIGAESEVYSWGKGARGRLGRRDEDAGLPRPVQLDETHPYTVTSVSCCHGNTLLAVRSVTDEPVPP
chain 2: MGEGGLPPAFQLLLRACDQGDTETARRLLEPGAAEPAERGAEPEAGAEPAGAEVAGPGAAAAGAVGAPVPVDCSDEAGNTALQFAAAGGHEPLVRFLLRRGASVNSRNHYGWSALMQAARFGHVSVAHLLLDHGADVNAQNRLGASVLTVASRGGHLGVVKLLLEAGAFVDHHHPSGEQLGLGGSRDEPLDITALMAAIQHGHEAVVRLLMEWGADPNHAARTVGWSPLMLAALTGRLGVAQQLVEKGANPDHLSVLEKTAFEVALDCKHRDLVDYLDPLTTVRPKTDEEKRRPDIFHALKMGNFQLVKEIADEDPSHVNLVNGDGATPLMLAAVTGQLALVQLLVERHADVDKQDSVHGWTALMQATYHGNKEIVKYLLNQGADVTLRAKNGYTAFDLVMLLNDPDTELVRLLASVCMQVNKDKGRPSHQPPLPHSKVRQPWSIPVLPDDKGGLKSWWNRMSNRFRKLKLMQTLPRGLSSNQPLPFSDEPEPALDSTMRAAPQDKTSRSALPDAAPVTKDNGPGSTRGEKEDTLLTTMLRNGAPLTRLPSDKLKAVIPPFLPPSSFELWSSDRSRTRHNGKADPMKTALPQRASRGHPVGGGGTDTTPVRPVKFPSLPRSPASSANSGNFNHSPHSSGGSSGVGVSRHGGELLNRSGGSIDNVLSQIAAQRKKAAGLLEQKPSHRSSPVGPAPGSSPSELPASPAGGSAPVGKKLETSKRPPSGTSTTSKSTSPTLTPSPSPKGHTAESSVSSSSSHRQSKSSGGSSSGTITDEDELTGILKKLSLEKYQPIFEEQEVDMEAFLTLTDGDLKELGIKTDGSRQQILAAISELNAGKGRERQILQETIHNFHSSFESSASNTRAPGNSPCA

Variants of: B1
Experiment: co-immunoprecipitation (anti-GFP IP, western blot band quantification); HEK293T cell lysates co-expressing NEK8-GFP and Flag-ANKS6; parent: 1; read off a plot

| Variant | ratio to parent |
| --- | --- |
| chain 1 G580S | ~0.97 |
| chain 1 H425Y | ~1 |
| chain 1 T87A | ~0.42 |
| chain 1 R602W | ~0.95 |
